What was measured:
LdG5K [1] = target: T1, LdG5K (Leishmania donovani, UniProt A0A0R6Y3I5); test: PK/LDH-coupled NADH oxidation assay, single point; format: biochemical; conditions: 1 mM compound; 100 mM Na glutamate, 5 mM ATP, 5 mM MgCl2, pH 7.4, 25 °C
T1 construct: gene G5K; tetramer about 105 kDa
T1 sequence (A0A0R6Y3I5 1-263): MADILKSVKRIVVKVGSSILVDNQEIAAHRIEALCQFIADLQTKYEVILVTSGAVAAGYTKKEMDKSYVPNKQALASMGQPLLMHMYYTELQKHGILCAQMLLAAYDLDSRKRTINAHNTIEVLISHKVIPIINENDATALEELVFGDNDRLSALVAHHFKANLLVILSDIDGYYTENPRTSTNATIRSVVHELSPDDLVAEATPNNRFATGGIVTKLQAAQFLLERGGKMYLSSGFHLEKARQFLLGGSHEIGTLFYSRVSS
Excerpt: PK/LDH-coupled NADH oxidation assay, single point on LdG5K

LdG5K [2] = target: T1, LdG5K; test: PK/LDH-coupled NADH oxidation assay; format: biochemical
Excerpt: (§1) PK/LDH-coupled NADH oxidation assay on LdG5K

[3] = target: the molecule itself; test: SEC; Superdex 200 H/R 10/30, 50 mM Tris-HCl pH 7.2, 0.15 M NaCl, 0.5 mL/min, room temperature; mass estimated against protein standards; no proline
[4] = substrate: N[C@@H](CCC(=O)O)C(=O)O; test: PK/LDH-coupled NADH oxidation assay; format: biochemical, Leishmania donovani; conditions: 5 mM ATP, 5 mM MgCl2, pH 7.4, 25 °C, no proline
Excerpt: as §1

[5] = substrate: Nc1ncnc2c1ncn2[C@@H]1O[C@H](COP(=O)(O)OP(=O)(O)OP(=O)(O)O)[C@@H](O)[C@H]1O; test: PK/LDH-coupled NADH oxidation assay; format: biochemical, Leishmania donovani; conditions: 150 mM Na glutamate, 5 mM MgCl2, pH 7.4, 25 °C
Excerpt: as §1

[6] = substrate: N[C@@H](CCC(=O)O)C(=O)O; test: PK/LDH-coupled NADH oxidation assay, Hill fit; format: biochemical, Leishmania donovani; conditions: no proline, Hill slope 0.94 ± 0.09, pH 7.4, 25 °C

C[C@@]1(C(=O)O)CCCN1 [α‐methyl‐L‐proline]
LdG5K activity (%) with 1 mM (LdG5K [1]): 82%

O=C(O)[C@@H]1CCN1 [L‐azetidine‐2‐carboxylic acid]
IC50 (LdG5K [2]): 730 ± 70 µM

O=C(O)[C@@H]1C[C@@H](O)CN1 [Trans‐4‐hydroxy‐L‐proline]
LdG5K activity (%) with 1 mM (LdG5K [1]): 89%

O=C(O)[C@@H]1C[C@H](O)CN1 [Cis‐4‐hydroxy‐L‐proline]
LdG5K activity (%) with 1 mM (LdG5K [1]): 87%

O=C(O)[C@@H]1CCCN1 [L‐proline]
IC50 (LdG5K [2]): 390 ± 80 µM

O=C(O)C1C=CCN1 (racemic) [3,4‐dehydro‐D,L‐proline]
IC50 (LdG5K [2]): 490 ± 20 µM

O=C(O)[C@H]1CN[C@H](C(=O)O)C1 [L‐trans‐pyrrolidine‐2,4‐dicarboxylic acid]
LdG5K activity (%) with 1 mM (LdG5K [1]): 84%

O=C(O)[C@@H]1CSCN1 [L‐4‐thioproline]
IC50 (LdG5K [2]): 1800 ± 200 µM

B1: Leishmania donovani glutamate 5-kinase (enzyme, UniProt A0A0R6Y3I5 1-263, looked up)
chain: MADILKSVKRIVVKVGSSILVDNQEIAAHRIEALCQFIADLQTKYEVILVTSGAVAAGYTKKEMDKSYVPNKQALASMGQPLLMHMYYTELQKHGILCAQMLLAAYDLDSRKRTINAHNTIEVLISHKVIPIINENDATALEELVFGDNDRLSALVAHHFKANLLVILSDIDGYYTENPRTSTNATIRSVVHELSPDDLVAEATPNNRFATGGIVTKLQAAQFLLERGGKMYLSSGFHLEKARQFLLGGSHEIGTLFYSRVSS
notes: theoretical Mr 29.033 kDa; Cloned through BamHI/EcoRI into a modified pGEX-6P-1 with an in-frame N-terminal His-GST tag; also called LdG5K; G5K; source: E. coli C41(DE3) pLysS, purified (glutathione resin, on-column cleavage by PreScission protease); not shown: His, N-terminal, cleaved; GST, N-terminal, cleaved
stoichiometry N [3]: 4 | Km [4]: 10 ± 0.7 mM | kcat [4]: 12.8 ± 0.3 s⁻¹ | kcat/Km [4]: 1280 M⁻¹ s⁻¹ | Km [5]: 0.6 ± 0.07 mM | kcat [5]: 11.7 ± 0.3 s⁻¹ | kcat/Km [5]: 19500 M⁻¹ s⁻¹ | K0.5 [6]: 19.0 ± 2.9 mM | kcat [6]: 13.5 ± 0.6 s⁻¹

Source: publication PMC6099280, “Characterisation of a putative glutamate 5‐kinase from Leishmania donovani” (The Febs Journal, 2018)
